Where a chain is given by its changes, count along the chain named.
Target: T1, HKU1 spike (2P-stabilized ectodomain with foldon) (HCoV-HKU1, isolate N5 (as in PDB 5I08), UniProt Q0ZME7, stabilised)
T1 construct: source: ExpiCHO or Freestyle 293F cells, purified
Assay: ELISA
Conditions: both partners purified

B1: Antibody 3A3, full-length (mouse variable region-human IgG1 constant region chimera) (antibody, V domains shown)
VH: QVQLQQSGAELLKPGASVKLSCTASGFNIKDTYIHWLKQRPEQGLEWIGRIGPAIGNTIYAPKFQGKATITTDTSSNTAYLQLSSLTSEDTAVYYCARYYGSSYYYFDYWGQGTTLTVSS
VL: DIVMTQSAPSVPVTPGESVSISCRSSKSLLHSNGNTYLYWFLQRPGQSPQLLIYRMSNLASGVPDRFSGSGSGTAFTLRISRVEAEDVGVYYCMQYLEYPLTFGAGTKLELK
binding result: binds

B2: Antibody RAY53, full-length human IgG1 (antibody, V domains shown)
VH: QVQLVQSGAVVLKPGASVKLSCKASGFNIKNTYIHWLKQAPGQRLEWIGRIGPAIGNTIYAPKFQGKATITTDTSASTAYLELSSLRSEDTAVYYCARYYGSSYYYLDYWGQGTTVTVSS
VL: B1 VL with A8P, P9L, S18P, R44K, Y54A, N58T, R79K, L111I
binding result: binds

Reference: PMC10030117 (eLife, 2023)
